Measured values as given in article PMC9036094, “Antigen-derived peptides engage the ER stress sensor IRE1α to curb dendritic cell cross-presentation” (The Journal of Cell Biology, 2022).

System: ATF6 in BMDCs
Assay: ATF6 activation in BMDCs (immunoblot, proteolytic processing)
Type: cell-based, mouse
Details: MG132 5 μM or ovalbumin 500 μg/ml, in words
Description: Figure S1. Antigen pulsing of BMDCs activates IRE1α. (A) BMDCs were treated with MG132 (5 μM) or ovalbumin (500 μg/ml) for indicated time points and analyzed by IB. (B) BMDCs were pulsed with ovalbumin (500 μg/ml) and G9668 (3 μM) for indicated time periods and analyzed by IB. (C) Molecular structure, potency, and kinase selectivity of G9668. (D) Schematic representation of G9668 interaction with 220 kinases at 1 μM. Size and color of circles represent interaction strength. Analysis was conducted by KinomeScan. (E) BMDCs were pulsed for 4 h with APC-tagged ovalbumin or soluble CD4-Fc protein (500 μg/ml) with amiloride (10 μM); uptake of protein was assayed by flow cytometry (n = 3). (F) WT or MyD88 KO Flt3L-derived BMDCs were pulsed with ovalbumin (500 μg/ml) or soluble CD4-Fc protein (500 μg/ml), or treated with LPS (10 μg/ml) for 4 h and analyzed by IB. (G) MEFs and BMDCs were pulsed with ovalbumin or treated with Tg (100 nM) for 4 h and analyzed by IB. Images in A, B, F, and G represent at least two similar experiments, and molecular weights represent kD; E bar graphs represent mean ± SD from three independent biological repeats. Analysis for E was performed using unpaired, two-tailed t test; *, P ≤ 0.05; **, P ≤ 0.01. Source data are available for this figure: SourceData FS1. […]

B1: ovalbumin: classical protein antigen ovalbumin (Sigma-Aldrich) (protein)
chain: MGSIGAASMEFCFDVFKELKVHHANENIFYCPIAIMSALAMVYLGAKDSTRTQINKVVRFDKLPGFGDSIEAQCGTSVNVHSSLRDILNQITKPNDVYSFSLASRLYAEERYPILPEYLQCVKELYRGGLEPINFQTAADQARELINSWVESQTNGIIRNVLQPSSVDSQTAMVLVNAIVFKGLWEKAFKDEDTQAMPFRVTEQESKPVQMMYQIGLFRVASMASEKMKILELPFASGTMSMLVLLPDEVSGLEQLESIINFEKLTEWTSSNVMEERKIKVYLPRMKMEEKYNLTSVLMAMGITDVFSSSANLSGISSAESLKISQAVHAAHAEINEAGREVVGSAEAGVDAASVSEEFRADHPFLFCIKHIATNAVLFFGRCVSP
For B1, the ATF6 activation was “relatively minimal activation”.
